Laboratory results taken from the RNAGym collection of RNA variant scans (doi:10.1073/pnas.2313332121).
This sample holds only a part of the variants without activity.

B1: TPR 5TU (parent)
chain: GGAUCUUCUCGAUCUAACAAAAAAGACAAAUCUGCCACAAAGCUUGAGAGCAUCUUCGGAUGCAGAGGCGGCAGCCUUCGGUGGCGCGAUAGCGCCAACGUUCUCAACUAUGACACGCAAAACGCGUGCUCCGUUGAAUGGAGUUUAUCAUG

Variants of: B1
Assay: polymerase ribozyme fitness, log enrichment relative to wild type (log ratio); higher = more active; in vitro selection for triplet polymerase activity
Outline: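 Fitness measures genotype enrichment against wild-type enrichment on a logarithmic scale, with inverse-variance-weighted averaging of replicates. The logarithm is base 2, and genotypes were kept only with ≥10 input reads and ≥1 read per output in Illumina sequencing. The sequenced libraries came from one triplicate in vitro selection round, including frozen incubation at −7 °C, of PCR-built, transcribed mutant libraries of each subunit of a heterodimeric triplet polymerase ribozyme.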
For GGAUCUUCUCGAUCUAACAAAAAAGACAAAUCUGCCACAAAGCUUGAGAGCAUCUUCGAAUGCAGAGGCCGCAGCCUUCGGUGGCGCGAUAGCGCCAACGUUCUCAACUAUGACACGCAAAACGCGUGCUCCGUUGAAUGGAGUUUAUCAUG, the “polymerase ribozyme fitness (log ratio)” value was -2.8. In the case of GGAUCUUCUCGAUCUAACAAAAAAGACAAAUCUGCCACAAAGCUUGAGAGCAUCUUCGAAUGCACAGACGGCAGCCCUCGGUGGCGCGAUAGCGCCAACGUUCUCAACUAUGACACGCAAAACGCGUGCUCCUUUGAAUGGAGUUUAUCAUG, the “polymerase ribozyme fitness (log ratio)” value is reported as ≤ -4.2. In the case of GGAUCUUCUCGAUCUAACAAAAAAGACAAAUCUGCCACAAAGCUUGAGAGCAUCUUCGAAUGCAGAGGCGGCAGCCUUCGGUGGCGCGAUAGCGCGAACGUUCUCAACUAUGACACGCAAAACGCGUGCUCCGUUGAAUGGAGUUUAUCAUG, the “polymerase ribozyme fitness (log ratio)” value is reported as -1.1. For GGAUCUUCUCGAUCUAACAAAAAAGACAAAUCUGCCACAAAGCUUGAGAGCAUCUUCGAAUGCAGAGGCGGCAGCCUUCGGUGGGGCGAUAUCGACAACGUUCUCAACUAUGACAAGCAAAACGCGGGCUCCGUUGAAUGGAGUUUAUCAUG, the “polymerase ribozyme fitness (log ratio)” value was ≤ -4.2. For GGAUCUUCUCGAUCUAACAAAAAAGACAAAUCUGCCACAAAGCUUGAGAGCAUCUUCGAAUGCAGAGGCGGCAGCCUUCGGUGGCGCGAUAGCGCCGACGUUCUCAACUAUGACACGCAAAACGCGUGCUCCGUUGAAUGGAGUUUAUCAUG, the “polymerase ribozyme fitness (log ratio)” value was -0.633. For GGAUCUUCUCGAUCUAACAAAAAAGACAAAUCUGCCACAAAGCUUGAGAGCAUCUUCGAAUGCAGAGGCGGCAGCCUUCGGUGGCGCGUUAGCGACUAAGUUCUCAACUAUGACACGCAAAACGGGUGCUCCGUUGAAUGGAGUUUAUCAUG, the “polymerase ribozyme fitness (log ratio)” value was ≤ -4.2. In the case of GGAUCUUCUCGAUCUAACAAAAAAGACAAAUCUGCCACAAAGCUUGAGAGCAUCUUCGAAUGCAGAGGCGGCAGCCUUCGGUGGCUCGAUAGCGCCUACGUUCUCAAGUAUGACAGGCAAAACGCGUGCUCCGUUGAAUGGACUUUAUCAUG, the “polymerase ribozyme fitness (log ratio)” value is reported as ≤ -4.2. In the case of GGAUCUUCUCGAUCUAACAAAAAAGACAAAUCUGCCACAAAGCUUGAGAGCAUCUUCGAAUGCAGAGGCGGCAGCCUUAGGAGGCGCGAUAGCGCAAACGUUCUCAACUAUGACACGCAAAACGCGUGCUCCGUUGAAUGGAGUUUAUCAUG, the “polymerase ribozyme fitness (log ratio)” value is reported as -3.85. In the case of GGAUCUUCUCGAUCUAACAAAAAAGACAAAUCUGCCACAAAGCUUGAGAGCAUCUUCGAAUGCAGAGGCGGCAGCCUUCGGUGGCGCGAUAGCGCCAACGUUCUCCACUAUGCCACGGAAAACGCGUGCUCCGUUGAAUGGAGUUUAUCAUG, the “polymerase ribozyme fitness (log ratio)” value is reported as ≤ -4.2. With GGAUCUUCUCGAUCUAACAAAAAAGACAAAUCUGCCACAAAGCUUGAGAGCAUCUUCGAAUGCAGAGGCGGCAGCCUUCGGAGGCGCGAUAGCGGCAACGUUCUCAACUAUGACACGCAAAACGCGUGCUCCGUUAAAUGGAGUUUAUCAUG the “polymerase ribozyme fitness (log ratio)” value was -1.25. For GGAUCUUCUCGAUCUAACAAAAAAGACAAAUCUGCCACAAAGCUUGAGAGCAUCUUCGAAUGCAGAGGCGGCAGCCUUCGGUGGCGCGAUAGCGCCAACGUUCUCAACUAUGACACGCAAAACGCGUGCUCCGUUGACUGGAGUUCAUCGUG, the “polymerase ribozyme fitness (log ratio)” value was ≤ -4.2. For GGAUCUUCUCGAUCUAACAAAAAAGACAAAUCUGCCACAAAGCUUGAGAGCAUCUUCGAAUGGAGAGGGGGCAGCCUUCGGUGGCGCGAUAGUGCCAACGUUCUCAACUAUGACACGCAAAACGCGUGCUCCGUUGAAUGGAGUUUAUCAUG, the “polymerase ribozyme fitness (log ratio)” value was -2.27. In the case of GGAUCUUCUCGAUCUAACAAAAAAGACAAAUCUGCCACAAAGCUUGAGAGCAUCUUCGAAUGCAGAGGCGGCAGCCUUCGGUGGCGCGAUAGCGCCAACGUUCUCAACUAUGACACGCAAAAUGCGUGCUCCGUUCAAUGGAGUUUAUGAUG, the “polymerase ribozyme fitness (log ratio)” value is reported as -4.17. For GGAUCUUCUCGAUCUAACAAAAAAGACAAAUCUGCCACAAAGCUUGAGAGCAUCUUCGAAUGCAGAGGCGGCAGCCUUCGGUGGGGCGAUAGCGCCAACAUUCUCAACUAUGACACGCAAAACGCGUGCUCCGGUGAAUGGAGGUUAUCCUG, the “polymerase ribozyme fitness (log ratio)” value was ≤ -4.2. In the case of GGAUCUUCUCGAUCUAACAAAAAAGACAAAUCUGCCACAAAGCUUGAGAGCAUCUUCGAAUGCAGAGGCGGCAGCCUUCGGUGGCGCGAUAGCGCCAACGUUCUCAACUAUGACACGCAAAACGCGUGCUCAGUUGAAUGGAGUUUAUCAUG, the “polymerase ribozyme fitness (log ratio)” value is reported as -2.31. In the case of GGAUCUUCUCGAUCUAACAAAAAAGACAAAUCUGCCACAAAGCUUGAGAGCAUCUUCGAAUGCAGAGGCGGCAGCCUUCGGUGGCGCGAUAGCGCCAACGUUCUCAACUAUGACACGCAAAACGCGUGCUCCGUUGAAUGGAGUUUAUCUUG, the “polymerase ribozyme fitness (log ratio)” value is reported as 0.933. With GGAUCUUCUCGAUCUAACAAAAAAGACAAAUCUGCCACAAAGCUUGAGAGCAUCUUCGAAUGCAGAGGCGGCAGCCUUCGGUGGCGCGAUAGCGCCAACGAUCUCAACUAUGACACGCAAAACGCGUGCUCCGUUGAAUGGAGUUUAUCAUG the “polymerase ribozyme fitness (log ratio)” value was 0.287. With GGAUCUUCUCGAUCUAACAAAAAAGACAAAUCUGCCACAAAGCUUGAGAGCAUCUUCGAAAGCAGAGGCGGAAGCCUUCGGUGGCGCGAUAGCGCCAACGUUCUCAACUAUGACACGCAAAACGCGUGCUCCGUUGAAUGGAGUUUAUCAUG the “polymerase ribozyme fitness (log ratio)” value was ≤ -4.2. With GGAUCUUCUCGAUCUAACAAAAAAGACAAAUCUGCCACAAAGCUUGAGAGCAUCUUCGAAAGCAGAGGAGGCAGCCUUCGGUGGCGCGAUAGCGCCAACGUUCUCAACUAUGACACGCAAAACGCGUGCUCCGUUGAAUGGCGUUUAUCAUG the “polymerase ribozyme fitness (log ratio)” value was -3.27.
